Results: patent US6051232

Target: wild type RT1.A^a (rat MHC class I antigen) on transfected BUF (RT1^b) Morris hepatoma 7316A cells (rat)
Assay: flow cytometry on BUF hepatoma cells transfected with WT-RT1.A^a, FITC rabbit anti-rat Ig

Substance: R2/15S anti-rat RT1.A^a class I polymorphic monoclonal antibody (tool reagent)
- positive staining (percent of cells): > 90%
